Measured values taken from publication PMC9500498 (Circulation research, 2021).
Ends that are not written are not given here. * marks the point of attachment. Biotin = O=C1N[C@H]2[C@H](CS[C@H]2CCCCC(=O)*)N1; Ahx = NCCCCCC(=O)O

Target: calmodulin (CaM), recombinant (UniProt P0DP23 1-149)
Assay: SPR

Kd: 4.7 ± 0.7 µM | koff: 0.00053 s⁻¹ | kon: 130 M⁻¹ s⁻¹
B1: biotin-ahx-AKAP18δ-N (79–98) (peptide)
peptide: {Biotin-Ahx}-KKRKKAKKDYQPNYFLSIPI
